Experimental data reported in publication PMC3281039, “Tetrahydrodipicolinate N-Succinyltransferase and Dihydrodipicolinate Synthase from Pseudomonas aeruginosa: Structure Analysis and Gene Deletion” (PLoS ONE, 2012).

Experiments:
[1] = target: T1, tetrahydrodipicolinate N-succinyltransferase (DapD, PA3666) (Pseudomonas aeruginosa, UniProt G3XD76); assay: crystal structure at […] Å with CoA; succinate from […] in the crystallization buffer; format: binding; parameters: recombinant DapD; model residues 1–245 and 251–343
T1 sequence (G3XD76 1-344): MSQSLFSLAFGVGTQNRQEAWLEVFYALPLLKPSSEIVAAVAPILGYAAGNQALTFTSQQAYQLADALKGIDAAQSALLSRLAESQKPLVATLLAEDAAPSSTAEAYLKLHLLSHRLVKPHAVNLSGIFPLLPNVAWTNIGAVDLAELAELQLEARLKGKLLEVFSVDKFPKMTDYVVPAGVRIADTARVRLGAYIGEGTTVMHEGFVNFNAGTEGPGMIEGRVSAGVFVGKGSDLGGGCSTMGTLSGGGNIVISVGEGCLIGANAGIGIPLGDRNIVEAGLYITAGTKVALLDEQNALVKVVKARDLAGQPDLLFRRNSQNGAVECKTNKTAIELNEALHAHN

[2] = target: T1, tetrahydrodipicolinate N-succinyltransferase (DapD, PA3666); assay: crystal structure at […] Å (soaking); IC50 in DTNB succinyltransferase assay; format: biochemical; parameters: recombinant DapD with Gly-Ser-His at the N-terminus after thrombin cleavage; residues 330–344 not modeled
[3] = target: T1, tetrahydrodipicolinate N-succinyltransferase (DapD, PA3666); assay: crystal structure at […] Å (co-crystallization), with succinate; format: binding; parameters: recombinant DapD; model residues 1–245 and 251–343
[4] = target: Tetrahydrodipicolinate N-succinyltransferase (DapD, PA3666) from Pseudomonas aeruginosa (Pseudomonas aeruginosa PAO1); assay: crystal structure; PaDapD, hanging drops, 19-20% PEG3350, 0.3-0.4 M succinate pH 6.2; tetragonal P4(1)2(1)2 (apo, CoA-succinate) and monoclinic P2(1) (apo, L-2AP, D-2AP) crystal forms
[5] = target: Tetrahydrodipicolinate N-succinyltransferase (DapD, PA3666) from Pseudomonas aeruginosa (Pseudomonas aeruginosa PAO1); assay: SEC; analytical size exclusion chromatography, Superdex-200 10/30, 25 mM Tris-HCl pH 8.0, 150 mM NaCl; calibrated with chymotrypsinogen-A, ovalbumin, albumin, catalase, ferritin
purified protein = substrate: N[C@@H](CCCCC(=O)O)C(=O)O; assay: purified protein; format: biochemical, Pseudomonas aeruginosa; conditions: active site groove between two subunits of the homotrimer; two arginines (Arg181, Arg193), Asn209, Ala226, Glu221
[6] = target: the molecule itself; assay: SEC; analytical size exclusion chromatography, Superdex-200 10/30, 25 mM Tris-HCl pH 8.0, 150 mM NaCl; calibrated with chymotrypsinogen-A, ovalbumin, albumin, catalase, ferritin

O=C(O)CCC(=O)O [succinate]
crystal structure at 2.40 Å with CoA; succinate from 0.4 M in the crystallizatio [1]: contains a succinate molecule bound next to the acceptor arm of the CoA in the active site cleft

N[C@H](CCCCC(=O)O)C(=O)O [D-2AP, D-2-aminopimelate]
IC50 [2]: > 20 mM

CC(C)(COP(=O)(O)OP(=O)(O)OC[C@H]1O[C@@H](n2cnc3c(N)ncnc32)[C@H](O)[C@@H]1OP(=O)(O)O)[C@@H](O)C(=O)NCCC(=O)NCCS [CoA, coenzyme A]
crystal structure at 2.40 Å (co-crystallization), with succinate [3]: Coenzyme A is bound in this narrow cleft formed at the interface of two adjacent subunits

Tetrahydrodipicolinate N-succinyltransferase (DapD, PA3666) from Pseudomonas aeruginosa (enzyme)
stoichiometry N [4]: 3
stoichiometry N [5]: 3

B1: tetrahydrodipicolinate N-succinyltransferase (DapD, PA3666) (Pseudomonas aeruginosa PAO1) (protein)
chain: T1 sequence (G3XD76 1-344)
notes: recombinant DapD with Gly-Ser-His at the N-terminus after thrombin cleavage; residues 330–344 not modeled
Km (purified protein): 7.0 mM

B2: Dihydrodipicolinate synthase (DapA, PA1010) from Pseudomonas aeruginosa (enzyme, Pseudomonas aeruginosa PAO1)
chain: MIAGSMVALVTPFDAQGRLDWDSLAKLVDFHLQEGTNAIVAVGTTGESATLDVEEHIQVIRRVVDQVKGRIPVIAGTGANSTREAVALTEAAKSGGADACLLVTPYYNKPTQEGMYQHFRHIAEAVAIPQILYNVPGRTSCDMLPETVERLSKVPNIIGIKEATGDLQRAKEVIERVGKDFLVYSGDDATAVELMLLGGKGNISVTANVAPRAMSDLCAAAMRGDAAAARAINDRLMPLHKALFIESNPIPVKWALHEMGLIPEGIRLPLTWLSPRCHEPLRQAMRQTGVLA
notes: Dihydrodipicolinate synthase DapA, locus PA1010, Pseudomonas aeruginosa PAO1; the gene coding for DapA was cloned in pNIC28Bsa4 by LIC; the final model holds residues 1-291 (chain A) and 2-291 (chains B, C, D); N-terminal His6 tag with TEV site from vector pNIC28Bsa4 (GenBank EF198106); also called PaDapA; source: E. coli BL21(DE3), purified (Ni-NTA, Sephadex G-25 desalting); not shown: His6, …
stoichiometry N [6]: 2
